Test results published in publication PMC10083716.

Legend:
[1] = target: T1, mouse 5-HT3A receptor L353A, full length (mouse) (UniProt P23979)
T1 sequence: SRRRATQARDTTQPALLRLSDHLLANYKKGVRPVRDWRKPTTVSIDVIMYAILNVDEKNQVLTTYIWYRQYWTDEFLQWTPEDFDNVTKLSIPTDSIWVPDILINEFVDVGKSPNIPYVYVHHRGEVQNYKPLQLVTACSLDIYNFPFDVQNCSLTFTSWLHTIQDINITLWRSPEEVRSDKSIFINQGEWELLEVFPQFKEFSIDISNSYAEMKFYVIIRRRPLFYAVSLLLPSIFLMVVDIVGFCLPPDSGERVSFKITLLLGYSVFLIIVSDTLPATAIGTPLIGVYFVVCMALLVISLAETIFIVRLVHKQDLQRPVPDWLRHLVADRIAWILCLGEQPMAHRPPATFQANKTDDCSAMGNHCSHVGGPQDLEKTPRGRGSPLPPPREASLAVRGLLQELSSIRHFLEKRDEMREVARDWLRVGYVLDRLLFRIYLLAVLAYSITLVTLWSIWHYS

[2] = target: T2, mouse 5-HT3A receptor R349A, full length (mouse) (UniProt P23979)
T2 sequence: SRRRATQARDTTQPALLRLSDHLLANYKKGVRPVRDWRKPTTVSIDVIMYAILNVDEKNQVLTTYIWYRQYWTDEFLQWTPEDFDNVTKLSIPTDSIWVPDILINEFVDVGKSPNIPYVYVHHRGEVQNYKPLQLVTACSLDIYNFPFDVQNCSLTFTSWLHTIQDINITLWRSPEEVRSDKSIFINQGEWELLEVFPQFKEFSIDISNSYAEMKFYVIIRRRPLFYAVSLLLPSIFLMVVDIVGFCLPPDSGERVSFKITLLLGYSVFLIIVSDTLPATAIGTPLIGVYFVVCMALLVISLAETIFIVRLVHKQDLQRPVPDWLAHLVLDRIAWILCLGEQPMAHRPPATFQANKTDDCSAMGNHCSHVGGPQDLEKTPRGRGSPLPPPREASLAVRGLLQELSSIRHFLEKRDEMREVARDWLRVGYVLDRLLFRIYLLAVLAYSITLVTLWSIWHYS

[3] = target: T3, mouse 5-HT3A receptor W347A, R349A, L353A, full length (mouse) (UniProt P23979)
T3 sequence: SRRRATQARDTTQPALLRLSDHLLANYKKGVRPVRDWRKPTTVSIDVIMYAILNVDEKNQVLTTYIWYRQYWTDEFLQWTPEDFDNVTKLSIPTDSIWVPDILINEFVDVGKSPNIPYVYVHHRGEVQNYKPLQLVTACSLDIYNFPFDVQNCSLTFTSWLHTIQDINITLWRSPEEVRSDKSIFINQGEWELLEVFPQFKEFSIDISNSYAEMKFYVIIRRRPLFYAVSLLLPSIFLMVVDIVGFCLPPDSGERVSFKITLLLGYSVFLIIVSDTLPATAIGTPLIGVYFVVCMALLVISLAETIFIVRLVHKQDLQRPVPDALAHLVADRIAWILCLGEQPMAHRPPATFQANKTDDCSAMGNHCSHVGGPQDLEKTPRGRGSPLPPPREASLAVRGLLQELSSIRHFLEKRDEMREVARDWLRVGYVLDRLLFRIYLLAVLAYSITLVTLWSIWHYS

[4] = target: T4, mouse 5-HT3A receptor W347A, full length (mouse) (UniProt P23979)
T4 sequence: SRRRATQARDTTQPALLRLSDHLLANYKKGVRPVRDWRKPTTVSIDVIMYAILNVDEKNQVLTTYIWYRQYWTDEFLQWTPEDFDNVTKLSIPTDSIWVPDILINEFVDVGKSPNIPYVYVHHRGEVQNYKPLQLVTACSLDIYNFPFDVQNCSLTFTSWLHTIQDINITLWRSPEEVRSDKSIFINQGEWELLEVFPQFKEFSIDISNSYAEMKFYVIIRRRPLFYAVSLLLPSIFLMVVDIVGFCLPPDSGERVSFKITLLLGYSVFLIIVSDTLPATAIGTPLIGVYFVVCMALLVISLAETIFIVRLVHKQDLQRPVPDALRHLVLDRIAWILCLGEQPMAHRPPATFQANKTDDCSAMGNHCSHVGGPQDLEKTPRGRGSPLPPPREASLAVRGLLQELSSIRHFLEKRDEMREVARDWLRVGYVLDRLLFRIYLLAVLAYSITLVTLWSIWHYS

[5] = target: T5, mouse 5-HT3A receptor, wild type, full length (mouse) (UniProt P23979)
T5 sequence: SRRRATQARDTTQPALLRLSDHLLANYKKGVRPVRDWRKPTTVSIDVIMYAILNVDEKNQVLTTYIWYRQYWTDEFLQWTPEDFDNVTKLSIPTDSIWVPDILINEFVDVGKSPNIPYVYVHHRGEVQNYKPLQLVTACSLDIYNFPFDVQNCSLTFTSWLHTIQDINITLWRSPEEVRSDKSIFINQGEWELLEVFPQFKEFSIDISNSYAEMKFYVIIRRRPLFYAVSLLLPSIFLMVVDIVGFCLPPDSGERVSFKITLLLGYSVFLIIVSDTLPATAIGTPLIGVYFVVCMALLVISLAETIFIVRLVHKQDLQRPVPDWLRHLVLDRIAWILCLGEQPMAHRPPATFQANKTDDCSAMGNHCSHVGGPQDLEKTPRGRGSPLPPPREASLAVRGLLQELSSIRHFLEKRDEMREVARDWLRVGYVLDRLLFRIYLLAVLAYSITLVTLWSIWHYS

[6] = target: T6, mouse 5-HT3A receptor W447A, R449A, L454A, full length (mouse) (UniProt P23979)
T6 sequence: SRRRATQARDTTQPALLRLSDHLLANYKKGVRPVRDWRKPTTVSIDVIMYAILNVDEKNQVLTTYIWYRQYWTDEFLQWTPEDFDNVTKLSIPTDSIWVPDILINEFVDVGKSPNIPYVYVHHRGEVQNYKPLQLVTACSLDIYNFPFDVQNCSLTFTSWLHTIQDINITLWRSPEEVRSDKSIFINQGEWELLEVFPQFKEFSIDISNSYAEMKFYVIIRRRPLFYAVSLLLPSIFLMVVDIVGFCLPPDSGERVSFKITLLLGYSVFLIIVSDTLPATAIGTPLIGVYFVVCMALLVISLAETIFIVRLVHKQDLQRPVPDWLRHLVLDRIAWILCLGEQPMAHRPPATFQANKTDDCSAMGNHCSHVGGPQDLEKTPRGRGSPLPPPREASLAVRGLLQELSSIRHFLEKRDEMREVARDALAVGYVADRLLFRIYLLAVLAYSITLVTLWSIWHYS

- remaining current (%): peak 5-HT-evoked current of 5-HT3A channels co-expressed with RIC-3 divided by that of the channels alone; TEVC in Xenopus oocytes, 10 uM serotonin [1]: 50%
- remaining current (%): peak 5-HT-evoked current of 5-HT3A channels co-expressed with RIC-3 divided by that of the channels alone; TEVC in Xenopus oocytes, 10 uM serotonin [2]: 33.9%
- remaining current (%): peak 5-HT-evoked current of 5-HT3A channels co-expressed with RIC-3 divided by that of the channels alone; TEVC in Xenopus oocytes, 10 uM serotonin [3]: 40.6%
- remaining current (%): peak 5-HT-evoked current of 5-HT3A channels co-expressed with RIC-3 divided by that of the channels alone; TEVC in Xenopus oocytes, 10 uM serotonin [4]: 43.4%
- remaining current (%): peak 5-HT-evoked current of 5-HT3A channels co-expressed with RIC-3 divided by that of the channels alone; TEVC in Xenopus oocytes, 10 uM serotonin [5]: 15.6%
- remaining current (%): peak 5-HT-evoked current of 5-HT3A channels co-expressed with RIC-3 divided by that of the channels alone; TEVC in Xenopus oocytes, 10 uM serotonin [6]: 36.9%
B1: resistance to inhibitors of choline esterase (RIC-3) protein (natural protein)
chain: SRGKRQEPPPTPEGKLGRFPPMMHHHQAPSDGQTPGARFQRSHLAEAFAKAKGSGGGAGGGGSGRGLMGQIIPIYGFGIFLYILYILFKLSKGKTTAEDGKCYTAMPGNTHRKITSFELAQLQEKLKETEAAMEKLINRVGPNGESRAQTVTSDQEKRLLHQLREITRVMKEGKFIDRFSPEKEAEEAPYMEDWEGYPEETYPIYDLSDCIKRRQETILVDYPDPKELSAEEIAERMGMIEEEESDHLGWESLPTDPRAQEDNSVTSCDPKPETCSCCFHEDEDPAVLAENAGFSADSYPEQEETTKEEWSQDFKDEGLGISTDKAYTGSMLRKRNPQGLE
